Experimental findings from US20230357447A1 (JANUX THERAPEUTICS, published 2023) are described below.

Test [1] concerns the target T1, Anti-CD28 scFv (VH-linker 1-VL) (biotinylated (site not stated)).
T1 construct: biotinylated and captured on neutravidin coated plates in the phage ELISA
The test is described as follows: phage binding ELISA on captured anti-CD28 scFv, wells pre-incubated with soluble CD28 (competitor).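 Further: crude clonal phage supernatants added without washing, bound phage detected by HRP-conjugated anti-M13 antibody, control wells held blocking buffer alone instead of CD28.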

Test [2] deals with T1, Anti-CD28 scFv (VH-linker 1-VL). Nature of the test: phage binding ELISA on captured biotinylated anti-CD28 scFv.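 Further: crude clonal phage supernatants applied to the wells, bound phage read out with an HRP-conjugated anti-M13 antibody.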
Procedure: (§1) Clonal phage were harvested as crude supernatants and screened via standard enzyme linked immunosorbent assays (ELISAs). […] Prior to the addition of clonal phage, wells were incubated with blocking buffer and CD28 soluble protein or blocking buffer alone. Without washing or aspirating, clonal phage supernatants were then added to the wells and incubated for a short time. Wells were then washed followed by detection of bound phage using a horse radish peroxidase conjugated anti-M13 antibody.
For test [3], the target named is T2, Anti-CD28 scFv (VH-linker 1-VL) (biotinylated for capture on neutravidin plates). Nature of the test: phage ELISA, scFv captured on plate.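 Further: crude clonal phage supernatants added to wells preincubated with soluble CD28 or with blocking buffer only, bound phage read out by HRP-linked anti-M13 antibody.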 A general note: An ELISA detects its analyte on a solid surface through an enzyme-linked reagent.
T2 sequence (scFv, as listed by the source): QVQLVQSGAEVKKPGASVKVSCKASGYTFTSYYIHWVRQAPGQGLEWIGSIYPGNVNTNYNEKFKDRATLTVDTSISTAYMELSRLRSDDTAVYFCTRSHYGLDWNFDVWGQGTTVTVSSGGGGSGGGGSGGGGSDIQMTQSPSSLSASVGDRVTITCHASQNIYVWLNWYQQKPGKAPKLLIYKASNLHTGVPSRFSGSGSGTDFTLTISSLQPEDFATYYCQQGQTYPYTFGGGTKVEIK
Procedure: as §1
The target of test [4] is T2, Anti-CD28 scFv (VH-linker 1-VL). Nature of the test: phage ELISA, scFv captured on plate, competitor soluble CD28.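 Further: crude clonal phage supernatants added to wells pre-incubated with soluble CD28 or with blocking buffer only as control, bound phage read out with HRP-linked anti-M13 antibody.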
Procedure: as §1
Test [5] addresses T3, anti-CD28 scFv (VH-linker 1-VL) (biotinylated (site not stated)).
T3 construct: Captured as biotinylated scFv on neutravidin coated plates in the phage ELISA
The test is described as follows: phage ELISA; scFv wells pre-incubated with soluble CD28 (competitor).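 Further: crude clonal phage supernatants added to wells pretreated with soluble CD28 in blocking buffer, bound phage read via HRP-linked anti-M13 antibody, reference wells got blocking buffer only.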

T3 sequence (scFv, as listed by the source): as above
T1 sequence (scFv, as listed by the source): as above

B1: Phage-390 (peptide)
peptide: IDWCPMHMWDFCYN
Regarding B1, the “CD28 scFv signal in presence of CD28” value in test [1] came to 0.232.

B2: Phage-329 (peptide)
peptide: MDWCPRALWNVCFA
Turning to B2, in test [2], the “CD28 scFv signal” value was found to be 2.14. In test [1], the “CD28 scFv signal in presence of CD28” value was 0.249.

B3: Phage-213 (peptide)
peptide: MNWCPSYMWDQCFA
In the case of B3, the “Phage binding ELISA CD28 scFv signal” value in test [3] came to 0.854. Besides, the “Phage binding ELISA CD28 scFv signal in presence of CD28” value in test [4] worked out at 0.105.

B4: Phage-208 (peptide)
peptide: MDWCPTDMWIVCFA
Consider B4, for which the “Phage binding ELISA CD28 scFv signal” value in test [3] is 1.5. For the same molecule, the “Phage binding ELISA CD28 scFv signal in presence of CD28” value in test [4] came to 0.172.

B5: Phage-346 (peptide)
peptide: MDWCPRHLWHACFS
For the molecule B5, the “CD28 scFv signal” value in test [2] was 1.83. Moreover, the “CD28 scFv signal in presence of CD28” value in test [1] worked out at 0.167.

B6: Phage-215 (peptide)
peptide: MDWCPRYMWNECFN
For the molecule B6, the “Phage binding ELISA CD28 scFv signal” value in test [3] was 0.687. Further, the “Phage binding ELISA CD28 scFv signal in presence of CD28” value in test [4] stood at 0.128.

B7: Phage-324 (peptide)
peptide: MDWCPRHLWYECFS
Consider B7, for which the “CD28 scFv signal” value in test [2] worked out at 2.17. For the same molecule, the “CD28 scFv signal in presence of CD28” value in test [1] came out at 0.163.

B8: Phage-327 (peptide)
peptide: MHWCPRDLWHVCFN
In the case of B8, the “CD28 scFv signal” value in test [2] stood at 2.15. For the same molecule, in test [1], the “CD28 scFv signal in presence of CD28” value came out at 0.15.

B9: Phage-340 (peptide)
peptide: MSWCPIDLWSECFA
Take B9: in test [2], the “CD28 scFv signal” value stood at 1.99. Further, in test [1], the “CD28 scFv signal in presence of CD28” value was 0.148.

B10: Phage-337 (peptide)
peptide: MDWCPKPLWHVCFA
B10: in test [2], the “CD28 scFv signal” value was 2.02. Besides, the “CD28 scFv signal in presence of CD28” value in test [1] was found to be 0.152.

B11: Phage-265 clonal phage peptide (peptide)
peptide: MDWCPRFMWDLCFA
notes: on phage (pIII fusion)
For B11, the “CD28 scFv signal in presence of CD28” value in test [5] was 0.725.

B12: Phage-323 (peptide)
peptide: MDWCPTYLWNVCFA
B12: the “CD28 scFv signal” value in test [2] came to 2.21. In test [1], the “CD28 scFv signal in presence of CD28” value was 0.132.

B13: Phage-212 (peptide)
peptide: MDWCPRAMWDKCFF
In the case of B13, the “Phage binding ELISA CD28 scFv signal” value in test [3] amounted to 0.985. Also, the “Phage binding ELISA CD28 scFv signal in presence of CD28” value in test [4] stood at 0.094.

B14: Phage-339 (peptide)
peptide: MDWCPRTLWDQCFF
In the case of B14, in test [2], the “CD28 scFv signal” value was found to be 1.99. Moreover, in test [1], the “CD28 scFv signal in presence of CD28” value turned out to be 0.314.

B15: Phage-336 (peptide)
peptide: MDWCPRDLWNWCFN
Consider B15, for which, in test [2], the “CD28 scFv signal” value was 2.03. For the same molecule, the “CD28 scFv signal in presence of CD28” value in test [1] is 0.39.

B16: Phage-344 (peptide)
peptide: MDWCPRHLWVHCFS
Consider B16, for which, in test [2], the “CD28 scFv signal” value is 1.91. Moreover, the “CD28 scFv signal in presence of CD28” value in test [1] was found to be 0.173.

B17: Phage-333 (peptide)
peptide: MDWCPTDLWHECFA
With B17, the “CD28 scFv signal” value in test [2] came to 2.07. Besides, the “CD28 scFv signal in presence of CD28” value in test [1] is 0.154.

B18: Phage-389 (peptide)
peptide: MDWCPSDMWANCFF
As for B18, in test [1], the “CD28 scFv signal in presence of CD28” value amounted to 0.316.

B19: Phage-338 (peptide)
peptide: MDWCPRFLWNECFY
In the case of B19, the “CD28 scFv signal” value in test [2] stood at 2. For the same molecule, the “CD28 scFv signal in presence of CD28” value in test [1] was found to be 0.287.

B20: Phage-343 (peptide)
peptide: MDWCPRDLWTQCFF
For B20, in test [2], the “CD28 scFv signal” value came to 1.93. Moreover, in test [1], the “CD28 scFv signal in presence of CD28” value came out at 0.119.

B21: Phage-416 (peptide)
peptide: MDWCPSNMWNECFF
Take B21: the “CD28 scFv signal” value in test [2] is 0.983.

B22: Phage-342 (peptide)
peptide: MDWCPRNLWHECFA
On to B22, for which, in test [2], the “CD28 scFv signal” value worked out at 1.97. Besides, in test [1], the “CD28 scFv signal in presence of CD28” value stood at 0.175.

B23: Phage-359 (peptide)
peptide: MDWCPRPLWHECFA
With B23, the “CD28 scFv signal” value in test [2] was found to be 1.44. Also, in test [1], the “CD28 scFv signal in presence of CD28” value was found to be 0.138.

B24: Phage-351 (peptide)
peptide: MDWCPMNLWHECFA
On to B24, for which, in test [2], the “CD28 scFv signal” value was 1.74. The “CD28 scFv signal in presence of CD28” value in test [1] was 0.16.

B25: Phage-297 clonal phage peptide (peptide)
peptide: MDWCPRHLWTECFS
notes: on phage (pIII fusion)
On to B25, for which the “CD28 scFv signal in presence of CD28” value in test [5] was 0.243.

B26: Phage-236 clonal phage peptide (peptide)
peptide: MDWCPRDLWNLCFF
notes: on phage (pIII fusion)
For the molecule B26, the “CD28 scFv signal in presence of CD28” value in test [5] worked out at 0.436.

B27: Phage-341 (peptide)
peptide: MDWCPRHLWDECFN
For B27, in test [2], the “CD28 scFv signal” value stood at 1.98. Further, in test [1], the “CD28 scFv signal in presence of CD28” value stood at 0.268.

B28: Phage-387 (peptide)
peptide: MDWCPRHLWLECFN
B28: in test [2], the “CD28 scFv signal” value was 0.066. In test [1], the “CD28 scFv signal in presence of CD28” value is 0.074.

B29: Phage-322 (peptide)
peptide: MDWCPRHLWIECFN
Regarding B29, the “CD28 scFv signal” value in test [2] was determined as 2.21. In test [1], the “CD28 scFv signal in presence of CD28” value was 0.376.

B30: Phage-354 (peptide)
peptide: MDWCPRYLWLECFN
B30: in test [2], the “CD28 scFv signal” value was found to be 1.69. The “CD28 scFv signal in presence of CD28” value in test [1] came out at 0.368.

B31: Phage-331 (peptide)
peptide: MDWCPRHLWDECFY
For B31, the “CD28 scFv signal” value in test [2] was found to be 2.13. Moreover, in test [1], the “CD28 scFv signal in presence of CD28” value came to 0.146.

B32: Phage-214 (peptide)
peptide: MDWCPTYMWSECFN
On to B32, for which the “Phage binding ELISA CD28 scFv signal” value in test [3] was found to be 0.754. In test [4], the “Phage binding ELISA CD28 scFv signal in presence of CD28” value turned out to be 0.107.

B33: Phage-326 (peptide)
peptide: MFWCPITLWNECFN
With B33, the “CD28 scFv signal” value in test [2] was determined as 2.15. Further, the “CD28 scFv signal in presence of CD28” value in test [1] came to 0.143.

B34: Phage-298 clonal phage peptide (peptide)
peptide: MDWCPLYLWAECFN
notes: on phage (pIII fusion)
As to B34, the “CD28 scFv signal in presence of CD28” value in test [5] worked out at 0.193.

B35: Phage-345 (peptide)
peptide: MDFCPRFLWHECFN
With B35, the “CD28 scFv signal” value in test [2] turned out to be 1.91. Besides, in test [1], the “CD28 scFv signal in presence of CD28” value stood at 0.225.

B36: Phage-289 clonal phage peptide (peptide)
peptide: MDWCPRYLWNVCFA
notes: on phage (pIII fusion)
Take B36: the “CD28 scFv signal in presence of CD28” value in test [5] came out at 0.28.

B37: Phage-419 (peptide)
peptide: VDWCPAHMWNECYN
Consider B37, for which the “CD28 scFv signal” value in test [2] turned out to be 0.664.

B38: Phage-216 (peptide)
peptide: MDWCPMNMWYQCFN
Consider B38, for which the “Phage binding ELISA CD28 scFv signal” value in test [3] is 0.639. Also, the “Phage binding ELISA CD28 scFv signal in presence of CD28” value in test [4] worked out at 0.137.

B39: Phage-278 clonal phage peptide (peptide)
peptide: MDWCPRSIWYLCFN
notes: on phage (pIII fusion)
As for B39, the “CD28 scFv signal in presence of CD28” value in test [5] is 1.34.

B40: Phage-325 (peptide)
peptide: MDWCPAYLWDECFA
For the molecule B40, the “CD28 scFv signal” value in test [2] came to 2.17. The “CD28 scFv signal in presence of CD28” value in test [1] came out at 0.163.

B41: Phage-335 (peptide)
peptide: MDWCPRFLWDYCFA
With B41, in test [2], the “CD28 scFv signal” value amounted to 2.03. In addition, the “CD28 scFv signal in presence of CD28” value in test [1] was 0.207.

B42: Phage-392 (peptide)
peptide: LHWCPTSMWTYCYY
B42: the “CD28 scFv signal in presence of CD28” value in test [1] is 2.46.

B43: Phage-330 (peptide)
peptide: MDWCPRFLWDVCFN
Consider B43, for which the “CD28 scFv signal” value in test [2] was 2.14. In addition, the “CD28 scFv signal in presence of CD28” value in test [1] amounted to 0.309.

B44: Phage-328 (peptide)
peptide: MDWCPRALWDHCFN
In the case of B44, the “CD28 scFv signal” value in test [2] worked out at 2.15. Besides, the “CD28 scFv signal in presence of CD28” value in test [1] worked out at 0.293.

B45: Phage-332 (peptide)
peptide: IDWCPRALWDACLA
With B45, the “CD28 scFv signal” value in test [2] turned out to be 2.1. In test [1], the “CD28 scFv signal in presence of CD28” value was 0.164.

B46: Phage-210 (peptide)
peptide: MDWCPRDMWFECFA
In the case of B46, the “Phage binding ELISA CD28 scFv signal” value in test [3] came out at 1.31. Besides, the “Phage binding ELISA CD28 scFv signal in presence of CD28” value in test [4] came out at 0.143.

B47: Phage-334 (peptide)
peptide: MDWCPRYLWDECFS
B47: the “CD28 scFv signal” value in test [2] was determined as 2.06. For the same molecule, the “CD28 scFv signal in presence of CD28” value in test [1] was 0.164.

B48: Phage-209 (peptide)
peptide: IDWCPQDMWFYCFN
For the molecule B48, in test [3], the “Phage binding ELISA CD28 scFv signal” value was 1.42. The “Phage binding ELISA CD28 scFv signal in presence of CD28” value in test [4] is 0.16.

B49: Phage-358 (peptide)
peptide: MDWCPPHLWHECFF
As to B49, the “CD28 scFv signal” value in test [2] was 1.45.
